This is an account of results in PMC4183798.

This test deals with Fc-Nxph1mat-N146D/N156D/N162D (rat) (UniProt Q63366). The test is described as follows: SPR; reversed experiment: purified Fc-Nxph1·LNS2-HA complex (formed by co-expression) bound covalently and randomly to a CMD 200m chip (EDC-NHS); running buffer 50 mM Tris pH 7.4; serial injections of elution solutions (pH 4, pH 8.9, 0.25–4 M NaCl, 5 mM EDTA, 6 M urea, 7 M guanidinium chloride); Reichert SR7000DC. In general terms: In SPR one partner is held on a chip, and binding of the other changes the refractive index at the surface.
Chain of UniProt Q63366 (Q63366 22-271 N146D/N156D/N162D): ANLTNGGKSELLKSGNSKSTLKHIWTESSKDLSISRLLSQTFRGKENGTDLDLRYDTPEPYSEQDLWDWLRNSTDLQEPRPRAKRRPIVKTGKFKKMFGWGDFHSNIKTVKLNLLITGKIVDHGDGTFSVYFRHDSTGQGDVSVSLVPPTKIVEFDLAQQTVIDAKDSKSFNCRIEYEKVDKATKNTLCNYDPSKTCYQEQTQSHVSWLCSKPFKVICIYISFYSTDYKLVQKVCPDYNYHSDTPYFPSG

Take “C-terminally hemagglutinin (HA)-tagged LNS2 (domain or fragment)”: the percent of the complex released after injection of 1 M NaCl was 9%.
